According to patent US20230272390A1, “COMPOSITIONS AND METHODS FOR HEMOGLOBIN PRODUCTION” (THE CHILDREN'S HOSPITAL OF PHILADELPHIA, priority 2020, published 2023):

How the values were obtained:
[1] = test system: motifs from the CHD4 promoter and enhancer sites; experiment: EMSA with COS-7 nuclear extracts and radiolabeled probes; type: binding, human; details: COS nuclear extracts, FLAG-tagged constructs, radiolabeled CHD4 motif probes
Description: Nuclear extracts were prepared from COS-7 cells transiently transfected with ZNF410 full-length and ZNF410 ZF1-5 plasmids. FuGENE® 6 (Promega) was used to transfect 5 μg of vector into 100 mm plates of COS-7 cells. A pcDNA3 empty vector was used as control. Cells were harvested 48 hours after transfection and nuclear extracts prepared (Andrews, et al. (1991) Nucleic Acids Res., 19:2499).
EMSAs were performed (Crossley, et al. (1996) Mol. Cell Biol., 16:1695-1705). The sense oligonucleotide was labelled with [γ-^32P]-adenosine triphosphate (Perkin Elmer) and boiled at 100° C. for 1 minute before addition of the antisense oligonucleotide and annealing of probe via slow cooling from 100° C. to room temperature. Probes were purified using Quick Spin Columns for radio-labelled DNA Purification (Roche). Nuclear extracts were harvested from COS-7 cells and samples and loaded on a 6% native polyacrylamide gel in TBE buffer (45 mM Tris, 45 mM boric acid, 1 mM EDTA). A ‘COS empty’ control lane was included to show binding of any background endogenous protein to the probe. […] Gels were run at 250 V for 1 hour, 45 minutes at 4° C. then dried under vacuum. […]
ZNF410 contains five tandem C2H2-type zinc fingers (ZFs) potentially involved in DNA binding (FIG. 5A). […] Direct DNA binding by full length (FL) ZNF410 to sequences found at the CHD4 gene was assessed by electrophoretic mobility shift assays (EMSAs). […]

endogenous ZNF410 = experiment: ChIP-seq in HUDEP-2 cells overexpressing HA-tagged ZF constructs; type: cell-based, human; details: overexpression in HUDEP-2 cells
Description: HUDEP-2 cells at Day 3 of differentiation, primary human CD34+ cells at Day 9 differentiation (similar to the polychromatic stage) and G1E-ER4 cells at 24 hours differentiation were crosslinked with 1% formaldehyde at room temperature for 10 min and quenched by the addition of glycine. ChIP experiments were performed (Hsu, et al. (2017) Mol. Cell., 66:102-116). ZNF410 (Proteintech, Cat. #14529-1-AP), HA (Sigma, Cat. #11815016001) and H3K27ac (Abcam, Cat. #ab4729) antibodies were used for ChIP. ChIP-seq libraries were prepared using TruSeq® ChIP-seq Sample preparation Kit (part #IP-202-1012) according to the manufacturer's instructions. Reads were aligned with Bowtie2 local alignment to allow the mapping of indels (Langmead, et al. (2012) Nat. Methods 9:357-359). […]
Reads were aligned against reference genome hg38 for human and genome mm10 for mouse using Bowtie2 (v2.2.9) and the default parameters. […] Reads aligned to mitochondria, random contigs and ENCODE blacklisted regions were also removed for downstream analysis. Genome coverage files were generated and normalized to 1 million reads per library using bedtools (v2.25.0), and then converted to bigwig format for visualization using the UCSC Toolkit. […] Read density plot and heatmap around selected peaks were generated using Deeptools (version 2.5.7, “computeMatrix” and “plotHeatmap”). […]

B1: ZF1-5: fragment of human ZNF410 comprising five zinc finger domains ZF1-5 (residues 217-366); dominant-negative when overexpressed (protein)
chain: KKLKCTVEGCDRTFVWPAHFKYHLKTHRNDRSFICPAEGCGKSFYVLQRLKVHMRTHNGEKPFMCHESGCGKQFTTAGNLKNHRRIHTGEKPFLCEAQGCGRSFAEYSSLRKHLVVHSGEKPHQCQVCGKTFSQSGSRNVHMRKHHLQLG
modifications: left off: small tags and cut ends
notes: fragment of human ZNF410 comprising five zinc finger domains ZF1-5 (residues 217-366); dominant-negative when overexpressed
- DNA binding in EMSA [1]: strong DNA binding
- interference with endogenous ZNF410 binding (endogenous ZNF410; ChIP-seq): markedly interfered
- chromatin occupancy (endogenous ZNF410; HA ChIP-seq): bound to the CHD4 regulatory regions and to the other ZNF410 targets
